In article PMC4267404, “Trihelix transcription factor GT-4 mediates salt tolerance via interaction with TEM2 in Arabidopsis”:

T1: GST-GT-4 (Arabidopsis thaliana, UniProt Q9LU92 1-372)
T1 sequence: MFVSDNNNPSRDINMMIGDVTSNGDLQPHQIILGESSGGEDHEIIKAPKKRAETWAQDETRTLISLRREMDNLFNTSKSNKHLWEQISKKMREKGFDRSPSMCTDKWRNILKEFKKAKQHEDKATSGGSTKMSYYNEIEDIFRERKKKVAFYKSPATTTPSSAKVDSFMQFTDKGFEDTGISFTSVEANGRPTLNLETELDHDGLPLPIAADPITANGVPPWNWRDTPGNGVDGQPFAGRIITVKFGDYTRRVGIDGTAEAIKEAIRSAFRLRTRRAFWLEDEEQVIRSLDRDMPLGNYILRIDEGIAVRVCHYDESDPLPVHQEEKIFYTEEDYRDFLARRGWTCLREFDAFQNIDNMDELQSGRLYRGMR

B1: Cor15A promoter 60 bp fragment with GT-3b box (dsDNA)
DNA 1: TTTCTTTAAGGAAATACATCAGAGAGAAAAATTATTACGAAACGATTCTATTACAAGTAA
DNA 2: TTACTTGTAATAGAATCGTTTCGTAATAATTTTTCTCTCTGATGTATTTCCTTAAAGAAA
B2: P7 (MRE4) (dsDNA)
DNA 1: TATCTCACCGTTACCTCTCACCGTTACCTCTCACCTACCATT
DNA 2: AATGGTAGGTGAGAGGTAACGGTGAGAGGTAACGGTGAGATA
B3: P1 (GT-3 box) (dsDNA)
DNA 1: CGGGGTAAATAGGTAAATAGGTAAATA
DNA 2: TATTTACCTATTTACCTATTTACCCCG
B4: P2 (GT-3b box) (dsDNA)
DNA 1: CGGAAAAATCGAAAAATCGAAAAATT
DNA 2: AATTTTTCGATTTTTCGATTTTTCCG

Tests used:
GST-GT-4 [1] = molecular target: T1, GST-GT-4; assay: EMSA; Probes annealed in 50 mM NaCl (70 C 5 min, then room temperature); EMSA binding buffer, pH and temperature not given (as in ref. 57); conditions: protein: recombinant; tags: N-terminal GST (pGEX6p-1); label: digoxigenin
GST-GT-4 [2] = molecular target: T1, GST-GT-4; assay: EMSA; unlabeled competitor reduces band; Probes annealed in 50 mM NaCl (70 C 5 min, then room temperature); EMSA binding buffer, pH and temperature not given (as in ref. 57); conditions: protein: recombinant; tags: N-terminal GST (pGEX6p-1); label: digoxigenin; annealed complementary oligos

| Binder | binding result (GST-GT-4 [1]) | binding result (GST-GT-4 [2]) |
| --- | --- | --- |
| B1 | binds | – |
| B2 | – | binds |
| B3 | – | binds |
| B4 | – | binds |
